Test results from article PMC8053108, “RPA2 winged-helix domain facilitates UNG-mediated removal of uracil from ssDNA; implications for repair of mutagenic uracil at the replication fork” (Nucleic Acids Research, 2021).
One block for each substance: values may come before it.

Key:
RPA2 WH (Homo sapiens) [1] = target: RPA2 WH (Homo sapiens) (UniProt P15927); assay: ITC; conditions: cited from earlier work
[2] = target: RPA2 (subunit of the RPA trimer) (UniProt P15927); assay: peptide-bead pull-down, anti-RPA2 blot
[3] = target: RPA2 (subunit of the RPA trimer) (UniProt P15927); assay: MST with dye-labelled RPA trimer
[4] = target: RPA trimer lacking the RPA2 winged-helix domain (RPA-ΔWH) (human) (UniProt P27694)
Sequence of RPA trimer lacking the RPA2 winged-helix domain (RPA-ΔWH) (human) (P27694 whole entry, stated change not applied, chain 1 of 3, the tested form may be a part): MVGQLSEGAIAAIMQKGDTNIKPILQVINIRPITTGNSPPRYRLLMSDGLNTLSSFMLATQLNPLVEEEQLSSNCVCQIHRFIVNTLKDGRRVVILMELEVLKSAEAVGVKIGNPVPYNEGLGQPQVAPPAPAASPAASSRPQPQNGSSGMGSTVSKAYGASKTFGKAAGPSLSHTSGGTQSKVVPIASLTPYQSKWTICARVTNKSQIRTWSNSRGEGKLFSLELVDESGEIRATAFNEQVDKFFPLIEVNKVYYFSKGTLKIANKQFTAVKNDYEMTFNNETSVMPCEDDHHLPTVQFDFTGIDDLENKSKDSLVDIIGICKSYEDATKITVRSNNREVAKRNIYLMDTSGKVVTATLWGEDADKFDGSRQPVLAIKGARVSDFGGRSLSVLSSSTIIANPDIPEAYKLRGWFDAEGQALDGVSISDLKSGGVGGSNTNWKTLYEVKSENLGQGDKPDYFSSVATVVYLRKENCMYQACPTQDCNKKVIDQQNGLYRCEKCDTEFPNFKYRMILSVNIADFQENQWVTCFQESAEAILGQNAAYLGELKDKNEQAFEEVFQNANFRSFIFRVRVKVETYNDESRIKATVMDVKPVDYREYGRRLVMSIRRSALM
Sequence of RPA trimer lacking the RPA2 winged-helix domain (RPA-ΔWH) (human) (chain, as listed by the source mutant, chain 2 of 3): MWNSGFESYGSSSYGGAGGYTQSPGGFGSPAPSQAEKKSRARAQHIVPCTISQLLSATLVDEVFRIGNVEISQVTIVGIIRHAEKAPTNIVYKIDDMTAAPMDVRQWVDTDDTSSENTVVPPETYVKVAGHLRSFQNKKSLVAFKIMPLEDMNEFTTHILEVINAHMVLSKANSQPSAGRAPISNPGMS
Sequence of RPA trimer lacking the RPA2 winged-helix domain (RPA-ΔWH) (human) (chain, as listed by the source mutant, chain 3 of 3): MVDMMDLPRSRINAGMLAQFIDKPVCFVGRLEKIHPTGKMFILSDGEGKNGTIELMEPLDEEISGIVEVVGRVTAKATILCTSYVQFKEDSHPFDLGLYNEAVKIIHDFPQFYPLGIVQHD

[5] = target: human replication protein A (RPA) heterotrimer, recombinant (human) (UniProt P27694)
Sequence of human replication protein A (RPA) heterotrimer, recombinant (human) (P27694 whole entry, chain 1 of 3): as the sequence (P27694 whole entry, stated change not applied, chain 1 of 3, the tested form may be a part) above
Sequence of human replication protein A (RPA) heterotrimer, recombinant (human) (P15927 whole entry, chain 2 of 3, further chain): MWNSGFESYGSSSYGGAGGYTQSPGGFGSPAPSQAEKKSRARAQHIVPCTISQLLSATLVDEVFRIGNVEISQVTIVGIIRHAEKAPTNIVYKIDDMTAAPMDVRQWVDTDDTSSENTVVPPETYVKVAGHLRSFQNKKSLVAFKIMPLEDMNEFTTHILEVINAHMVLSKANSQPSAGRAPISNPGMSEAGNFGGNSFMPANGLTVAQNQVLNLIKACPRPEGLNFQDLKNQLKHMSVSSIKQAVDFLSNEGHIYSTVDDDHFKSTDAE
Sequence of human replication protein A (RPA) heterotrimer, recombinant (human) (P35244 whole entry, chain 3 of 3, further chain): as the sequence (chain, as listed by the source mutant, chain 3 of 3) above

[6] = target: human replication protein A (RPA) heterotrimer, recombinant (human) (UniProt P27694); remark: listed apart in the source
RPA2 WH (Homo sapiens) [7] = target: RPA2 WH (Homo sapiens) (UniProt P15927); assay: NMR; conditions: cited from earlier work

Sequence of UNG catalytic domain (UNG-CD), starting at UNG2 aa 93 (P13051 93-313): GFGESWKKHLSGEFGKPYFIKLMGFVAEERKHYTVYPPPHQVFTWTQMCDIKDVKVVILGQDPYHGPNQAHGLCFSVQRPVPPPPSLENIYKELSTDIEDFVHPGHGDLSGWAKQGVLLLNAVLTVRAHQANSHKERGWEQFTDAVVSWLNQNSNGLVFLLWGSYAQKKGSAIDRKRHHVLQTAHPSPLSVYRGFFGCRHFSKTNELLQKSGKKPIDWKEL
Sequence of RPA2 WH (Homo sapiens) (P15927 172-270): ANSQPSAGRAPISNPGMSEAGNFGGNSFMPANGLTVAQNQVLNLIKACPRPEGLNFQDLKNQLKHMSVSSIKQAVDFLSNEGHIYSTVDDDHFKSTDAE
Sequence of UNG2 peptide (24 aa) (P13051 whole entry): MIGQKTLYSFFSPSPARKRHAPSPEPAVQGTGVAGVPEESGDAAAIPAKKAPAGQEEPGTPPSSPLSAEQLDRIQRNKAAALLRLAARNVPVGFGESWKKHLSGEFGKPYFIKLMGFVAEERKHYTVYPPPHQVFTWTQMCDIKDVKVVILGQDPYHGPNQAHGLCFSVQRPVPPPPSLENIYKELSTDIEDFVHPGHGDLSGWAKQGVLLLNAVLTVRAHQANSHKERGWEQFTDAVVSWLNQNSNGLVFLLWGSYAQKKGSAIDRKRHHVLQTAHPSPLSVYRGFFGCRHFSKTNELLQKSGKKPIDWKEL
Sequence of UNG2 peptide (16 aa) (P13051 whole entry): as above

Substance: UNG2 peptide (24 aa) (from UniProt P13051)
Kd (RPA2 WH (Homo sapiens) [1]): 6.6 µM

Substance: UNG2 57-90 (from UniProt P13051) ppEV-34 (pT60, pS64) peptide
binding against the reference ([3]; reference: EV-34 unphosphorylated peptide, sites T60,S64): weaker
binding against the reference ([3]; reference: pEV-34 (pT60) peptide, sites S64): weaker

Substance: UNG2 peptide (16 aa) (from UniProt P13051)
Kd (RPA2 WH (Homo sapiens) [7]): < 1 µM

More lines, now with the values ahead:

binding against the reference ([2]; reference: EV-34 unphosphorylated peptide beads, sites T60): weaker
Substance: UNG2 57-90 (from UniProt P13051) pEV-34 (pT60) peptide beads

binding against the reference ([3]; reference: EV-34 unphosphorylated peptide, sites T60): weaker
Substance: UNG2 57-90 (from UniProt P13051) pEV-34 (pT60) peptide

fold increase of enzyme concentration needed to convert similar amounts of dsDNA substrate with 500 nM RPA-ΔWH [4]: 50 fold
fold increase of enzyme concentration needed to convert similar amounts of dsDNA substrate with 500 nM RPA-WT [5]: 200 fold
fold decrease in uracil excision from RPA (1 µM)-coated against naked ssDNA (100 nM U10-25*) [6]: 1000 fold
Substance: UNG catalytic domain (UNG-CD), starting at UNG2 aa 93 (from UniProt P13051-1 93-313) (domain or fragment)

binding against the reference ([2]; reference: EV-34 unphosphorylated peptide beads, sites T60,S64): weaker
binding against the reference ([2]; reference: pEV-34 (pT60) peptide beads, sites S64): weaker
Substance: UNG2 57-90 (from UniProt P13051) ppEV-34 (pT60, pS64) peptide beads
